We go through 5 sequences from the supplement of paper PMC5998384.

The subject of data set [1] is HeLa Kyoto. Kind of data set: solubility in G1/S (NP-40 vs SDS abundance) (log2 ratio); higher = more soluble. The following applies: cell cycle stage: G1/S.
Data set [2] has as its system HeLa Kyoto. Description: melting temperature (median over replicates), in situ; higher = more thermally stable.
Data set [3] has as its system HeLa Kyoto. Description: solubility change mitosis vs G1/S (difference of NP-40 vs SDS log2 ratios) (log2 ratio difference); higher = more soluble in mitosis.
The subject of data set [4] is HeLa Kyoto. Kind of data set: thermal stability score vs G1/S (z-score of summed log2 fold changes over temperatures); higher = more thermally stable than in G1/S.
The mark [5] stands for this setting: cell cycle stage: early G1 (4.5 h after nocodazole release).
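For melting temperature (median over replicates), in situ in this document: HeLa Kyoto cells synchronized by double thymidine or nocodazole block, proteins quantified by TMT10plex mass spectrometry, three independent biological replicates.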
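For solubility change mitosis vs G1/S (difference of NP-40 vs SDS log2 ratios) in this document: synchronized HeLa Kyoto cells (double thymidine block for G1/S, nocodazole release for mitosis), protein amounts in NP-40 versus SDS lysates quantified by mass spectrometry, three biological replicates.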
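For solubility in G1/S (NP-40 vs SDS abundance) in this document: HeLa Kyoto cells arrested at G1/S by double thymidine block, proteins quantified by TMT10plex mass spectrometry in mild NP-40 versus SDS extracts, three biological replicates.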
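For thermal stability score vs G1/S (z-score of summed log2 fold changes over temperatures) in this document: synchronized HeLa Kyoto cells, proteins quantified by TMT10plex mass spectrometry, three biological replicates, mitosis taken 0.5 h after nocodazole release, G1/S directly after double thymidine block.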

On to “MEAPLQTGMMGTSSHGLATNSSGAKVAERDGFQDVLAPGEGSAGRICGAQPVPFVPQVLGVMIGAGVAVVVTAVLILLVVRRLRVPKTPAPDGPRYRFRKRDKVLFYGRKIMRKVSQSTSSLVDTSVSATSRPRMRKKLKMLNIAKKILRIQKETPTLQRKEPPPAVLEADLTEGDLANSHLPSEVLYMLKNVRVLGHFEKPLFLELCRHMVFQRLGQGDYVFRPGQPDASIYVVQDGLLELCLPGPDGKECVVKEVVPGDSVNSLLSILDVITGHQHPQRTVSARAARDSTVLRLPVEAFSAVFTKYPESLVRVVQIIMVRLQRVTFLALHNYLGLTNELFSHEIQPLRLFPSPGLPTRTSPVRGSKRMVSTSATDEPRETPGRPPDPTGAPLPGPTGDPVKPTSLETPSAPLLSRCVSMPGDISGLQGGPRSDFDMAYERGRISVSLQEEASGGSLAAPARTPTQEPREQPAGACEYSYCEDESATGGCPFGPYQGRQTSSIFEAAKQELAKLMRIEDPSLLNSRVLLHHAKAGTIIARQGDQDVSLHFVLWGCLHVYQRMIDKAEDVCLFVAQPGELVGQLAVLTGEPLIFTLRAQRDCTFLRISKSDFYEIMRAQPSVVLSAAHTVAARMSPFVRQMDFAIDWTAVEAGRALYRQGDRSDCTYIVLNGRLRSVIQRGSGKKELVGEYGRGDLIGVVEALTRQPRATTVHAVRDTELAKLPEGTLGHIKRRYPQVVTRLIHLLSQKILGNLQQLQGPFPAGSGLGVPPHSELTNPASNLATVAILPVCAEVPMVAFTLELQHALQAIGPTLLLNSDIIRARLGASALDSIQEFRLSGWLAQQEDAHRIVLYQTDASLTPWTVRCLRQADCILIVGLGDQEPTLGQLEQMLENTAVRALKQLVLLHREEGAGPTRTVEWLNMRSWCSGHLHLRCPRRLFSRRSPAKLHELYEKVFSRRADRHSDFSRLARVLTGNTIALVLGGGGARGCSHIGVLKALEEAGVPVDLVGGTSIGSFIGALYAEERSASRTKQRAREWAKSMTSVLEPVLDLTYPVTSMFTGSAFNRSIHRVFQDKQIEDLWLPYFNVTTDITASAMRVHKDGSLWRYVRASMTLSGYLPPLCDPKDGHLLMDGGYINNLPADIARSMGAKTVIAIDVGSQDETDLSTYGDSLSGWWLLWKRLNPWADKVKVPDMAEIQSRLAYVSCVRQLEVVKSSSYCEYLRPPIDCFKTMDFGKFDQIYDVGYQYGKAVFGGWSRGNVIEKMLTDRRSTDLNESRRADVLAFPSSGFTDLAEIVSRIEPPTSYVSDGCADGEESDCLTEYEEDAGPDCSRDEGGSPEGASPSTASEMEEEKSILRQRRCLPQEPPGSATDA [PNPLA6]”, for which the “solubility in G1/S (log2)” value in the data set with HeLa Kyoto [1] was -0.179. Besides, the melting temperature amounted to 51.4 °C with HeLa Kyoto [2] (cell cycle stage: G1/S) and 50.8 °C with HeLa Kyoto [2] (cell cycle stage: mitosis). The “solubility change mitosis (log2)” value with HeLa Kyoto [3] is -0.0785. For the same sequence, the figures for the thermal stability score in the data set with HeLa Kyoto [4] (setting [5]) and in the data set on HeLa Kyoto [4] (cell cycle stage: mitosis) were -0.313 and -1.07, respectively.

Consider “MEAVLNELVSVEDLLKFEKKFQSEKAAGSVSKSTQFEYAWCLVRSKYNDDIRKGIVLLEELLPKGSKEEQRDYVFYLAVGNYRLKEYEKALKYVRGLLQTEPQNNQAKELERLIDKAMKKDGLVGMAIVGGMALGVAGLAGLIGLAVSKSKS [FIS1]”, for which the “solubility in G1/S (log2)” value in the data set with HeLa Kyoto [1] was 0.15. Also, the melting temperature in the data set on HeLa Kyoto [2] (cell cycle stage: G1/S) came to 54.2 °C; with HeLa Kyoto [2] (cell cycle stage: mitosis) it was 53.8 °C. Further, the “solubility change mitosis (log2)” value in the data set with HeLa Kyoto [3] worked out at 0.251. The results for the thermal stability score in the data set with HeLa Kyoto [4] (setting [5]) and in the data set with HeLa Kyoto [4] (cell cycle stage: mitosis) were -2.36 and -0.553, respectively.

Consider “MECPHLSSSVCIAPDSAKFPNGSPSSWCCSVCRSNKSPWVCLTCSSVHCGRYVNGHAKKHYEDAQVPLTNHKKSEKQDKVQHTVCMDCSSYSTYCYRCDDFVVNDTKLGLVQKVREHLQNLENSAFTADRHKKRKLLENSTLNSKLLKVNGSTTAICATGLRNLGNTCFMNAILQSLSNIEQFCCYFKELPAVELRNGKTAGRRTYHTRSQGDNNVSLVEEFRKTLCALWQGSQTAFSPESLFYVVWKIMPNFRGYQQQDAHEFMRYLLDHLHLELQGGFNGVSRSAILQENSTLSASNKCCINGASTVVTAIFGGILQNEVNCLICGTESRKFDPFLDLSLDIPSQFRSKRSKNQENGPVCSLRDCLRSFTDLEELDETELYMCHKCKKKQKSTKKFWIQKLPKVLCLHLKRFHWTAYLRNKVDTYVEFPLRGLDMKCYLLEPENSGPESCLYDLAAVVVHHGSGVGSGHYTAYATHEGRWFHFNDSTVTLTDEETVVKAKAYILFYVEHQAKAGSDKL [USP3]”, for which the “solubility in G1/S (log2)” value in the data set on HeLa Kyoto [1] was -0.0307. Besides, the melting temperature in the data set with HeLa Kyoto [2] (cell cycle stage: G1/S) and in the data set on HeLa Kyoto [2] (cell cycle stage: mitosis) was 49.4 °C throughout. The “solubility change mitosis (log2)” value in the data set with HeLa Kyoto [3] was -0.13. Besides, the thermal stability score was determined as 0.817 in the data set on HeLa Kyoto [4] (setting [5]) and 1.54 with HeLa Kyoto [4] (cell cycle stage: mitosis).

Consider “MEDEMPKTLYVGNLSRDVTEALILQLFSQIGPCKNCKMIMDTAGNDPYCFVEFHEHRHAAAALAAMNGRKIMGKEVKVNWATTPSSQKKDTSSSTVVSTQRSQDHFHVFVGDLSPEITTEDIKAAFAPFGRISDARVVKDMATGKSKGYGFVSFFNKWDAENAIQQMGGQWLGGRQIRTNWATRKPPAPKSTYESNTKQLSYDEVVNQSSPSNCTVYCGGVTSGLTEQLMRQTFSPFGQIMEIRVFPDKGYSFVRFNSHESAAHAIVSVNGTTIEGHVVKCYWGKETLDMINPVQQQNQIGYPQPYGQWGQWYGNAQQIGQYMPNGWQVPAYGMYGQAWNQQGFNQTQSSAPWMGPNYGVQPPQGQNGSMLPNQPSGYRVAGYETQ [TIA1]”, for which, in the data set with HeLa Kyoto [1], the “solubility in G1/S (log2)” value was found to be 0.0405. Also, the melting temperature in the data set with HeLa Kyoto [2] (cell cycle stage: G1/S) turned out to be 53.5 °C; in the data set with HeLa Kyoto [2] (cell cycle stage: mitosis), 53 °C. Moreover, the “solubility change mitosis (log2)” value with HeLa Kyoto [3] worked out at 0.0786. Further, the thermal stability score with HeLa Kyoto [4] (setting [5]) was -0.653; with HeLa Kyoto [4] (cell cycle stage: mitosis), -1.44.

Regarding “MEDHQHVPIDIQTSKLLDWLVDRRHCSLKWQSLVLTIREKINAAIQDMPESEEIAQLLSGSYIHYFHCLRILDLLKGTEASTKNIFGRYSSQRMKDWQEIIALYEKDNTYLVELSSLLVRNVNYEIPSLKKQIAKCQQLQQEYSRKEEECQAGAAEMREQFYHSCKQYGITGENVRGELLALVKDLPSQLAEIGAAAQQSLGEAIDVYQASVGFVCESPTEQVLPMLRFVQKRGNSTVYEWRTGTEPSVVERPHLEELPEQVAEDAIDWGDFGVEAVSEGTDSGISAEAAGIDWGIFPESDSKDPGGDGIDWGDDAVALQITVLEAGTQAPEGVARGPDALTLLEYTETRNQFLDELMELEIFLAQRAVELSEEADVLSVSQFQLAPAILQGQTKEKMVTMVSVLEDLIGKLTSLQLQHLFMILASPRYVDRVTEFLQQKLKQSQLLALKKELMVQKQQEALEEQAALEPKLDLLLEKTKELQKLIEADISKRYSGRPVNLMGTSL [CDK5RAP3]”, the “solubility in G1/S (log2)” value with HeLa Kyoto [1] was found to be 0.203. For the same sequence, the melting temperature in the data set on HeLa Kyoto [2] (cell cycle stage: G1/S) was 49.5 °C; with HeLa Kyoto [2] (cell cycle stage: mitosis) it was 49.4 °C. The “solubility change mitosis (log2)” value with HeLa Kyoto [3] was -0.0399. For the same sequence, the values for the thermal stability score with HeLa Kyoto [4] (setting [5]) and with HeLa Kyoto [4] (cell cycle stage: mitosis) were 1.2 and 2.62, respectively.
